One sequence from article PMC10846153 can be followed below.

The data set deals with T1, OxyR (Reut_A2805) (Cupriavidus pinatubonensis), ORF:7651349a.
T1 sequence: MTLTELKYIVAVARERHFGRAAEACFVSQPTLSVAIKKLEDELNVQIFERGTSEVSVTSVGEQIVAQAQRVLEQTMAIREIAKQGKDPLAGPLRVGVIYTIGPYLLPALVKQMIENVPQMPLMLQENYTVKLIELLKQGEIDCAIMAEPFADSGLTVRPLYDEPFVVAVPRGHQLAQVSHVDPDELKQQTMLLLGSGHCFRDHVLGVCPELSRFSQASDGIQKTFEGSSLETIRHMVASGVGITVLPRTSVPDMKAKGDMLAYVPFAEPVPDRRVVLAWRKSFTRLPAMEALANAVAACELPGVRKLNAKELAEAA
Nature of the data set: EMSA. The settings on record: EMSA: 20 mM Tris pH 7.4, 4 mM MgCl2, 100 mM NaCl, 10% glycerol; 20 min at room temperature; 6% native PAGE with 5% glycerol in 0.5x TBE.

With “AAATGCATCGCTCTCAGAATACCCAAAAATGAGCAATTCGATGCCATCGACTTTCGCGTTTCTGGCAACTTTGCGCGAACTGTAGAAAATACCGGATTACAGGTATTGTCCTGTCCAAGTCGCACAGCGTAAATTTCGCCTGACTTCCGTTGCGCAACCAACAGAAACACAAAGATT (double strand) [PT6SS1]”, the binding result is “binds”.
